From patent US20140223606, “COMPOSITIONS AND METHODS COMPRISING SEQUENCES HAVING MEGANUCLEASE ACTIVITY” (PIONEER HI BRED INTERNATIONAL INC, published 2014) come the findings set out here.

Conditions in all cases: tags: NLS, 6xHis
One data set concerns the target T1, ZM6.3(G5) (artificial).
T1 chain: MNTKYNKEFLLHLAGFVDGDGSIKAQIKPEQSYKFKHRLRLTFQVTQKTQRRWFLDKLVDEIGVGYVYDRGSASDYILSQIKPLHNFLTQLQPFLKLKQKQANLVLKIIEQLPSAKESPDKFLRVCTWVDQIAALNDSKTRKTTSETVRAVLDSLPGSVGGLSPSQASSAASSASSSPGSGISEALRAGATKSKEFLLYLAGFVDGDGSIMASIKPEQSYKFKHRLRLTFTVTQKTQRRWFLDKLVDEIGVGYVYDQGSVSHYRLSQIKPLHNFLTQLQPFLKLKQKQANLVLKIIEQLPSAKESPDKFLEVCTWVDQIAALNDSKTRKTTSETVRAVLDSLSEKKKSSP
Put plainly: cell_activity; yeast 37 C; 28 C: 0. As for the experimental part:
(§1) A 3 mL culture of selective media (MP Biomedical) was inoculated with a single colony of the yeast screening strain and grown at 30° C. overnight. On the following day, a 50 ml YPD culture (MP Biomedical) was started with 2 ml of the overnight culture and grown at 30° C. overnight. On the following day, the cells were harvested by centrifugation at 4000 rpm. The cells were resuspended in 100 ml ice cold water and centrifuged again. The cells were then washed in 1.2 M sorbitol, followed by treatment with 2 ml of 10 mM Tris pH 8.0, 1 mM EDTA, 100 mM Lithium acetate, 10 mM DTT, 0.6M sorbitol for 30 minutes at 30° C. with shaking. The cells were recovered by centrifugation, washed in 40 ml 1.2M sorbitol and finally resuspended in 250 microliters of 1.2M sorbitol. 50 microliter aliquots were transferred to test tubes on ice. Up to 5 microliters of DNA (100-500 nanograms) were added. The suspension was transferred to a 0.2 cm electroporation cuvette, on ice. Electroporation was performed with a pulse charge at 1.5 kV, 200 ohms, 25 microF (pulse time of 5 milliseconds). 1 mL YPD media (MP Biomedical) was added and the cells were allowed to recover at 30° C. for 1-2 hr. The cells were centrifuged, resuspended in 100 uL 1M sorbitol and plated on selective media lacking leucine and containing 2% galactose. The resulting yeast colonies were incubated at various temperatures ranging from 22 to 37 degrees Celsius for 7-10 days. I-CreI and meganucleases derived from it have maximal activity at or above 37 degrees Celsius. Screening was performed at a range of temperatures from 22 to 37 degrees in order to observe increases in activity at lower temperatures which are relevant to certain biological systems (eg. plant cells, plant cell cultures, etc). At that time the red/white sectoring phenotype, indicative of meganuclease activity was observed. Colonies with increased white sectoring over the parental meganuclease (indicating colonies expressing a meganuclease with increased meganuclease activity), also referred to as “hits” and sometimes completely white, were isolated for further analysis. […]

The next data set has as its target T2, ZM6.3 (artificial).
T2 chain: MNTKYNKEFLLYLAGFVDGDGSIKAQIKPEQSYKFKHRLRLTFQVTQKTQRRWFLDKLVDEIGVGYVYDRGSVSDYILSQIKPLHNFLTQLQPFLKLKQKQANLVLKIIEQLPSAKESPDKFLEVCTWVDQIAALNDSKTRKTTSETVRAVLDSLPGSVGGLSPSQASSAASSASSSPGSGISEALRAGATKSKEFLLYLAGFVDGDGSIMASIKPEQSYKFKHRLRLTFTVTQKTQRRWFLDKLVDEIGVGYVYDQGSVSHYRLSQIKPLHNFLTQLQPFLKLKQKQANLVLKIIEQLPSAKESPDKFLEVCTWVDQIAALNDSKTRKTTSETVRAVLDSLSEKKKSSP
The data set is described as follows: cell_activity; yeast 37 C; 28 C: 0. As for the experimental part:
as §1

Another data set concerns the target T3, ZM6.3(G1) (artificial).
T3 chain: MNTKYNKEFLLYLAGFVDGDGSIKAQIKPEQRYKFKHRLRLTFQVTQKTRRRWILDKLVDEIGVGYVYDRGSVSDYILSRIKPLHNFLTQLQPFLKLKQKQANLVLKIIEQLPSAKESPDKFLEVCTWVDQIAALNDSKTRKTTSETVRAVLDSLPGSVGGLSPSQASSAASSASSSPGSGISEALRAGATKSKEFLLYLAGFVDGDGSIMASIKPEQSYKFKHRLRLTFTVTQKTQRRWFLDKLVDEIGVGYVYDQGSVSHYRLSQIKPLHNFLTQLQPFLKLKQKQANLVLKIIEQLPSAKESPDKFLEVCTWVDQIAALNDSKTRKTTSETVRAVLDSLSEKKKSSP
Put plainly: cell_activity; yeast 37 C; 28 C: 4. The method, then: (§2) A 3 mL culture of selective media (MP Biomedical) was inoculated with a single colony of the yeast screening strain and grown at 30° C. overnight. On the following day, a 50 ml YPD culture (MP Biomedical) was started with 2 ml of the overnight culture and grown at 30° C. overnight. On the following day, the cells were harvested by centrifugation at 4000 rpm. The cells were resuspended in 100 ml ice cold water and centrifuged again. The cells were then washed in 1.2 M sorbitol, followed by treatment with 2 ml of 10 mM Tris pH 8.0, 1 mM EDTA, 100 mM Lithium acetate, 10 mM DTT, 0.6M sorbitol for 30 minutes at 30° C. with shaking. The cells were recovered by centrifugation, washed in 40 ml 1.2M sorbitol and finally resuspended in 250 microliters of 1.2M sorbitol. 50 microliter aliquots were transferred to test tubes on ice. Up to 5 microliters of DNA (100-500 nanograms) were added. The suspension was transferred to a 0.2 cm electroporation cuvette, on ice. Electroporation was performed with a pulse charge at 1.5 kV, 200 ohms, 25 microF (pulse time of 5 milliseconds). 1 mL YPD media (MP Biomedical) was added and the cells were allowed to recover at 30° C. for 1-2 hr. The cells were centrifuged, resuspended in 100 uL 1M sorbitol and plated on selective media lacking leucine and containing 2% galactose. The resulting yeast colonies were incubated at various temperatures ranging from 22 to 37 degrees Celsius for 7-10 days. I-CreI and meganucleases derived from it have maximal activity at or above 37 degrees Celsius. Screening was performed at a range of temperatures from 22 to 37 degrees in order to observe increases in activity at lower temperatures which are relevant to certain biological systems (eg. plant cells, plant cell cultures, etc). At that time the red/white sectoring phenotype, indicative of meganuclease activity was observed. Colonies with increased white sectoring over the parental meganuclease (indicating colonies expressing a meganuclease with increased meganuclease activity), also referred to as “hits” and sometimes completely white, were isolated for further analysis.
(§3) A total of 15 Zm6.3 variants with increased activity were confirmed in the yeast system (as described in Example 6). Increased activity was observed across a range of temperatures: 28 degrees Celsius, 30 degrees Celsius and 37 degrees Celsius, as shown in Table 15.

Another data set deals with T4, ZM6.3(H5) (artificial).
T4 chain: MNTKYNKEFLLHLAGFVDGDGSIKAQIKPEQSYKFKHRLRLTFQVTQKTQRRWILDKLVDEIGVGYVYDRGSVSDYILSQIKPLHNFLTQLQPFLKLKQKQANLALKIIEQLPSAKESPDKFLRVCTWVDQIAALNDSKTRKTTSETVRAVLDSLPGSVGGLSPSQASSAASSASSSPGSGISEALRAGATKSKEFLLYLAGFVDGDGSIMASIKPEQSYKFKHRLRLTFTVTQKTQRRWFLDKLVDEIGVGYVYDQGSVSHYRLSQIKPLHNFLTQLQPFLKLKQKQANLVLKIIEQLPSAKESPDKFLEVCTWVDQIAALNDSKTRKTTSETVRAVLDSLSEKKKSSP
The data set is described as follows: cell_activity; yeast 37 C; 28 C: 4. As for the experimental part:
as §2, §3

The target of another data set is T5, ZM6.3(H6) (artificial).
T5 chain: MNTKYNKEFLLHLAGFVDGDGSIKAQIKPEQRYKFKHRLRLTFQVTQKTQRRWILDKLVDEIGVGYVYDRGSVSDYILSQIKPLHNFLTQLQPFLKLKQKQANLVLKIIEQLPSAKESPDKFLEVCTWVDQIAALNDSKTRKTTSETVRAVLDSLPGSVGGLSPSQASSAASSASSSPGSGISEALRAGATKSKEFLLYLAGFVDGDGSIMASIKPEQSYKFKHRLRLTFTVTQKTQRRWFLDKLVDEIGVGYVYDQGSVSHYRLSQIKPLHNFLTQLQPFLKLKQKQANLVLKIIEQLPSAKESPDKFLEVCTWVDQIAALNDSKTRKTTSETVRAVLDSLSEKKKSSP
The data set is described as follows: cell_activity; yeast 37 C; 28 C: 4. As for the experimental part:
as §2, §3

B1: ZM6.3 recognition site (dsDNA)
DNA 1: CAGGCTCTCGTAAATGCGCCTG
DNA 2: CAGGCGCATTTACGAGAGCCTG
With B1, the activity with ZM6.3(G5) worked out at 2 score 0-4; with ZM6.3, 2 score 0-4; with ZM6.3(G1), 4 score 0-4; in the data set with ZM6.3(H5), 4 score 0-4; with ZM6.3(H6), 4 score 0-4.
